Results reported in patent US20200317768A1 (published 2020).
Residue numbers refer to the chain shown, from its start.

T1: cynomolgus monkey FcγRIIa1 extracellular domain, C-terminal His-tag (cynomolgus monkey)
T1 construct: also called cyno FcγRIIa1; cynoFcgRIIa1; not shown: His-tag added to C-terminus
T1 chain: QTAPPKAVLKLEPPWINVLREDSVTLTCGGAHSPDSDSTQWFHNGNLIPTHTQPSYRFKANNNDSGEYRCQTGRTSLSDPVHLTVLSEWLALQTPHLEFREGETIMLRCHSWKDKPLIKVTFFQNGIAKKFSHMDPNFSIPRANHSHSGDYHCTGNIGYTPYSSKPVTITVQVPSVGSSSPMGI

T2: human FcγRIIaR extracellular domain, C-terminal His-tag (human, UniProt P12318 34-217)
T2 construct: also called human FcγRIIa (type R); FcgRIIaR; not shown: His-tag added to C-terminus
T2 chain: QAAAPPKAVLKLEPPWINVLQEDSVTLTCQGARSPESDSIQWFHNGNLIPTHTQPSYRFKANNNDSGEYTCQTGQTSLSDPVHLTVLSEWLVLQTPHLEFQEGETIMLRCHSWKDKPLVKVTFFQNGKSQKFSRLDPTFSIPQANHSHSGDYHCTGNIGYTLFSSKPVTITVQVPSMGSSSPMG

T3: cynomolgus monkey FcγRIIa3 extracellular domain, C-terminal His-tag (cynomolgus monkey)
T3 construct: also called cyno FcγRIIa3; cynoFcgRIIa3; not shown: His-tag added to C-terminus
T3 chain: T1 chain with P95T, T121A, A128S, H133P, D135N

T4: human FcγRIIaH extracellular domain, C-terminal His-tag (human, UniProt P12318 34-217)
T4 construct: also called human FcγRIIa (type H); FcgRIIaH; not shown: His-tag added to C-terminus
T4 sequence: T2 chain with R134H

T5: cynomolgus monkey FcγRIIa2 extracellular domain, C-terminal His-tag (cynomolgus monkey)
T5 construct: also called cyno FcγRIIa2; cynoFcgRIIa2; not shown: His-tag added to C-terminus
T5 chain: T1 chain with P95T, T121A, I127K, A128S, K130N, D135N, R142Q

T6: cynomolgus monkey FcγRIIb extracellular domain, C-terminal His-tag (cynomolgus monkey)
T6 construct: also called cyno FcγRIIb; cynoFcγRIIb; not shown: His-tag added to C-terminus
T6 chain: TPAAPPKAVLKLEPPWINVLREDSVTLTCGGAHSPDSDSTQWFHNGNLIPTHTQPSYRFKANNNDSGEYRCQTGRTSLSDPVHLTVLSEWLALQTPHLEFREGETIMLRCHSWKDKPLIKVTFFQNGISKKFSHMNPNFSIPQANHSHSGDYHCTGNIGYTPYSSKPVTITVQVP

B1: MS_M103205H795-SG1/M103202L889-SK1 (antibody, human IgG1, kappa)
heavy: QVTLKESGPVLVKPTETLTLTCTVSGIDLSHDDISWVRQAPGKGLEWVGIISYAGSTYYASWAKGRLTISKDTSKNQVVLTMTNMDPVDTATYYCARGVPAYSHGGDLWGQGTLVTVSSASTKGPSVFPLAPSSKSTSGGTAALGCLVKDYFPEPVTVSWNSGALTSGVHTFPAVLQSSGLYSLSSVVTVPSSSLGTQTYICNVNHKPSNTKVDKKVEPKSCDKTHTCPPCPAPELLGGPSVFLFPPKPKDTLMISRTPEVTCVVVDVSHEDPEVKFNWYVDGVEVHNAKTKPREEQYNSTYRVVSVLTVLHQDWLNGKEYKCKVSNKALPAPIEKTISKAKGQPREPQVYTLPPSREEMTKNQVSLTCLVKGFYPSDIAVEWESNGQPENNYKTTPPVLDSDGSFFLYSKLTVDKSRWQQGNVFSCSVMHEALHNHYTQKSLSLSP
light: DIVMTQSPATLSLSPGERATLSCTSSQSVYHANWLSWFQQKPGQPPKLLIYWASTLAYGVPSRFSGSGSGTDFTLTISSLQPEDAATYYCAGGYGGGRYAFGQGTKVEIKRTVAAPSVFIFPPSDEQLKSGTASVVCLLNNFYPREAKVQWKVDNALQSGNSQESVTEQDSKDSTYSLSSTLTLSKADYEKHKVYACEVTHQGLSSPVTKSFNRGEC
notes: Parent antibody; also called MS1032LO06-SG1
B2: M103205H795-MY213/M103202L889-SK1 (antibody, human IgG1, kappa)
heavy: QVTLKESGPVLVKPTETLTLTCTVSGIDLSHDDISWVRQAPGKGLEWVGIISYAGSTYYASWAKGRLTISKDTSKNQVVLTMTNMDPVDTATYYCARGVPAYSHGGDLWGQGTLVTVSSASTKGPSVFPLAPSSKSTSGGTAALGCLVKDYFPEPVTVSWNSGALTSGVHTFPAVLQSSGLYSLSSVVTVPSSSLGTQTYICNVNHKPSNTKVDKKVEPKSCDKTHTCPPCPAPELLNGPSVFLFPPKPKDTLMISRTPEVTCVVVDVSDEDPEVKFNWYVDGVEVHNAKTKPREEQYNSTYRVVSVLTVLHQDWLNGKEYKCKVSNKALPKPIEKTISKAKGQPREPQVYTLPPSREEMTKNQVSLTCLVKGFYPSDIAVEWESNGQPENNYKTTPKVLDSDGSFFLYSKLTVDKSRWQQGNVFSCSVMHEALHNHYTQKSLSLSP
light: B1 light
B3: M103205H795-MY143/M103202L889-SK1 (antibody, human IgG1, kappa)
heavy: B2 heavy with N238S, D270E, K332A, K398M
light: B1 light
B4: M103205H795-MY269/M103202L889-SK1 (antibody, human IgG1, kappa)
heavy: B2 heavy with N238M
light: B1 light
B5: M103205H795-MY227/M103202L889-SK1 (antibody, human IgG1, kappa)
heavy: B2 heavy with N238G, G239Y
light: B1 light
B6: M103205H795-MY209/M103202L889-SK1 (antibody, human IgG1, kappa)
heavy: B2 heavy with Q297L, K328T, K398P
light: B1 light
B7: M103205H795-MY228/M103202L889-SK1 (antibody, human IgG1, kappa)
heavy: B2 heavy with N238G, G239Y, Q297L, K398P
light: B1 light
B8: M103205H795-MY142/M103202L889-SK1 (antibody, human IgG1, kappa)
heavy: B2 heavy with N238E, D270E, K332A, K398M
light: B1 light
B9: M103205H795-MY270/M103202L889-SK1 (antibody, human IgG1, kappa)
heavy: B2 heavy with N238H
light: B1 light
B10: M103205H795-MY219/M103202L889-SK1 (antibody, human IgG1, kappa)
heavy: B2 heavy with N238G, G239Y, K398P
light: B1 light
B11: M103205H795-MY242/M103202L889-SK1 (antibody, human IgG1, kappa)
heavy: B2 heavy with N238G, P240I
light: B1 light
B12: M103205H795-MY229/M103202L889-SK1 (antibody, human IgG1, kappa)
heavy: B2 heavy with N238G, G239Y, Q297L
light: B1 light

target: T7, human FcγRIIIaV extracellular domain, C-terminal His-tag (human, UniProt P08637 17-208); assay: SPR (Biacore), antibody captured, FcgR analyte, 25 C
T7 construct: also called FcgRIIIaV; not shown: His-tag added to C-terminus
Experimental: (§1) The kinetic analysis of interactions between these antibodies and FcγR was carried out using BIACORE® T200 or BIACORE® 4000 (GE Healthcare). HBS-EP+ (GE Healthcare) was used as the running buffer, and the measurement temperature was set to 25° C. A chip produced by immobilizing Protein A. Protein A/G or mouse anti-human IgG kappa light chain (BD Biosciences) onto a Series S Sensor Chip CM4 or CM5 (GE Healthcare) by the amine-coupling method was used. […] After the measurement, the antibody captured on the chip was washed off by allowing reaction with 10 mM glycine-HCl, pH1.5 and 25 mM NaOH so that the chip was regenerated and used repeatedly. The sensorgrams obtained as measurement results were analyzed by the 1:1 Langmuir binding model using the BIACORE® Evaluation Software to calculate the binding rate constant ka (L/mol/s) and dissociation rate constant kd (l/s), and the dissociation constant KD (mol/L) was calculated from these values. […] Regarding such interactions, KD values were calculated using the following 1:1 binding model described in BIACORE® T100 Software Handbook BR1006-48 Edition AE.
(§2) The behavior of interacting molecules according to the 1:1 binding model on BIACORE® can be described by Equation 1: Req=C·R max/(KD+C)+RI, wherein, Req is a plot of steady-state binding levels to analyte concentration. C is concentration, RI is bulk refractive index contribution in the sample, and Rmax is analyte binding capacity of the surface. When this equation is rearranged, KD can be expressed as Equation 2: KD=C·Rmax/(Req−RI)−C. KD can be calculated by substituting the values of Rmax, RI, and C into Equation 1 or Equation 2. From the current measurement conditions, RI=0, C=2 μmol/L can be used.

T7 sequence (P08637 17-208 F176V): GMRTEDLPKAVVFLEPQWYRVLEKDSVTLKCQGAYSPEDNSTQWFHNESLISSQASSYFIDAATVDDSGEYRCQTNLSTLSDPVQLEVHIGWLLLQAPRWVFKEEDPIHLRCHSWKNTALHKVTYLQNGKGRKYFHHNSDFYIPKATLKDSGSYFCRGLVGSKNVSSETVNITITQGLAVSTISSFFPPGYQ

| Kd [nM] | Binder |
| --- | --- |
| 810 | B1 |
| 11000 | B2 |
| 1500 | B3 |
| 1100 | B4 |
| 18000 | B5 |
| 14000 | B6 |
| 140000 | B7 |
| 530 | B8 |
| 3700 | B9 |
| 91000 | B10 |
| 9200 | B11 |

Target: T1, cynomolgus monkey FcγRIIa1 …
Assay: as above
Experimental: as §1, §2

| Kd [nM] | Binder |
| --- | --- |
| 3200 | B1 |
| 530 | B2 |
| 1500 | B12 |
| 1100 | B3 |
| 2300 | B4 |
| 1900 | B5 |
| 630 | B6 |
| 3000 | B7 |
| 4100 | B8 |
| 1800 | B9 |
| 3500 | B10 |
| 4500 | B11 |

Target: T2, human FcγRIIaR extracellular domain, …
Assay: as above
Experimental: as §1, §2

| Kd [nM] | Binder |
| --- | --- |
| 1100 | B1 |
| 630 | B2 |
| 81 | B12 |
| 83 | B3 |
| 720 | B4 |
| 62 | B5 |
| 830 | B6 |
| 100 | B7 |
| 170 | B8 |
| 370 | B9 |
| 160 | B10 |
| 690 | B11 |

Target: T3, cynomolgus monkey FcγRIIa3 …
Assay: as above
Experimental: as §1, §2

| Kd [nM] | Binder |
| --- | --- |
| 17000 | B1 |
| 1300 | B2 |
| 1900 | B12 |
| 2900 | B3 |
| 6400 | B4 |
| 2500 | B5 |
| 1900 | B6 |
| 25000 | B8 |
| 2500 | B9 |
| 5500 | B10 |
| 5900 | B11 |

target: T4, human FcγRIIaH extracellular domain, …; assay: as above
Experimental: as §1, §2

| Kd [nM] | Binder |
| --- | --- |
| 690 | B1 |
| 350 | B2 |
| 980 | B12 |
| 37 | B3 |
| 230 | B4 |
| 1300 | B5 |
| 570 | B6 |
| 2200 | B7 |
| 190 | B8 |
| 73 | B9 |
| 2300 | B10 |
| 820 | B11 |

Target: T5, cynomolgus monkey FcγRIIa2 …
Assay: as above
Experimental: as §1, §2

| Kd [nM] | Binder |
| --- | --- |
| 5100 | B1 |
| 520 | B2 |
| 2200 | B12 |
| 1300 | B3 |
| 2600 | B4 |
| 2500 | B5 |
| 630 | B6 |
| 3300 | B7 |
| 4900 | B8 |
| 2300 | B9 |
| 4000 | B10 |
| 4200 | B11 |

target: T8, cynomolgus monkey FcγRIIIaS extracellular domain, C-terminal His-tag (cynomolgus monkey, UniProt A3RFZ7 21-206 (rhesus entry)); assay: as above
T8 construct: also called cyno FcγRIIIaS; cynoFcγRIIIaS; not shown: His-tag added to C-terminus
Experimental: as §1, §2

T8 sequence (A3RFZ7 21-206): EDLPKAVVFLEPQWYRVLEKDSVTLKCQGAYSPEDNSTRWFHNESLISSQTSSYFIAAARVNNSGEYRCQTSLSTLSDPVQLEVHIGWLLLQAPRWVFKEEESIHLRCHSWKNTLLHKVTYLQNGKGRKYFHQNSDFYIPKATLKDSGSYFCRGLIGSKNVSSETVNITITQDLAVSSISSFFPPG

| Kd [nM] | Binder |
| --- | --- |
| 360 | B1 |
| 1900 | B2 |
| 4200 | B12 |
| 280 | B3 |
| 220 | B4 |
| 3900 | B5 |
| 2200 | B6 |
| 9700 | B7 |
| 140 | B8 |
| 1100 | B9 |
| 6200 | B10 |
| 990 | B11 |

Target: T6, cynomolgus monkey FcγRIIb extracellular …
Assay: as above
Experimental: as §1, §2

| Kd [nM] | Binder |
| --- | --- |
| 1800 | B1 |
| 160 | B2 |
| 470 | B12 |
| 460 | B3 |
| 350 | B4 |
| 510 | B5 |
| 190 | B6 |
| 1100 | B7 |
| 1800 | B8 |
| 530 | B9 |
| 1300 | B10 |
| 1100 | B11 |
